Biological target: soluble, freshly prepared monomeric Aβ(1-40) (UniProt P05067)
Assay: capture ELISA, antibody immobilized, soluble monomeric Aβ(1-40) in solution

With 3D6 (antibody) the EC50 was 1 nM.

— US20150315267A1
